Measurements published in patent US20110171229A1.

Legend:
[1] = molecular target: chondroitin sulfate proteoglycan 4 (CSPG4) (human) (UniProt Q6UVK1); assay: flow cytometry (FACS), CD44+/CD24-/lo putative CSC subpopulation of MDA-MB-231 cells
[2] = molecular target: chondroitin sulfate proteoglycan 4 (CSPG4) (human) (UniProt Q6UVK1); assay: flow cytometry (FACS), whole cell population of SK-BR-3 cells
[3] = molecular target: chondroitin sulfate proteoglycan 4 (CSPG4) (human) (UniProt Q6UVK1); assay: flow cytometry (FACS), whole cell population of MDA-MB-435 cells
[4] = molecular target: chondroitin sulfate proteoglycan 4 (CSPG4) (human) (UniProt Q6UVK1); assay: flow cytometry (FACS), whole cell population of HS578T cells
[5] = molecular target: chondroitin sulfate proteoglycan 4 (CSPG4) (human) (UniProt Q6UVK1); assay: flow cytometry (FACS), whole cell population of SUM-149 cells
[6] = molecular target: chondroitin sulfate proteoglycan 4 (CSPG4) (human) (UniProt Q6UVK1); assay: flow cytometry (FACS), whole cell population of T-47D cells
[7] = molecular target: chondroitin sulfate proteoglycan 4 (CSPG4) (human) (UniProt Q6UVK1); assay: flow cytometry (FACS), CD44+/CD24-/lo putative CSC subpopulation of SUM-149 cells
[8] = molecular target: chondroitin sulfate proteoglycan 4 (CSPG4) (human) (UniProt Q6UVK1); assay: flow cytometry (FACS), whole cell population of MDA-MB-231 cells
[9] = molecular target: chondroitin sulfate proteoglycan 4 (CSPG4) (human) (UniProt Q6UVK1); assay: flow cytometry (FACS), CD44+/CD24-/lo putative CSC subpopulation of MDA-MB-435 cells
[10] = molecular target: chondroitin sulfate proteoglycan 4 (CSPG4) (human) (UniProt Q6UVK1); assay: flow cytometry (FACS), CD44+/CD24-/lo putative CSC subpopulation of MCF-7 cells
[11] = molecular target: chondroitin sulfate proteoglycan 4 (CSPG4) (human) (UniProt Q6UVK1); assay: flow cytometry (FACS), CD44+/CD24-/lo putative CSC subpopulation of HS578T cells
[12] = molecular target: chondroitin sulfate proteoglycan 4 (CSPG4) (human) (UniProt Q6UVK1); assay: flow cytometry (FACS), whole cell population of MCF-7 cells
[13] = molecular target: chondroitin sulfate proteoglycan 4 (CSPG4) (human) (UniProt Q6UVK1); assay: cell-based or functional assay
[14] = molecular target: chondroitin sulfate proteoglycan 4 (CSPG4) (human) (UniProt Q6UVK1); assay: flow cytometry (FACS), CD44+/CD24-/lo putative CSC subpopulation of MDA-MB-435 cells; control antibody
[15] = molecular target: chondroitin sulfate proteoglycan 4 (CSPG4) (human) (UniProt Q6UVK1); assay: flow cytometry (FACS), CD44+/CD24-/lo putative CSC subpopulation of MCF-7 cells; control antibody
[16] = molecular target: chondroitin sulfate proteoglycan 4 (CSPG4) (human) (UniProt Q6UVK1); assay: flow cytometry (FACS), CD44+/CD24-/lo putative CSC subpopulation of MDA-MB-231 cells; control antibody
[17] = molecular target: chondroitin sulfate proteoglycan 4 (CSPG4) (human) (UniProt Q6UVK1); assay: flow cytometry (FACS), CD44+/CD24-/lo putative CSC subpopulation of HS578T cells; control antibody
[18] = molecular target: chondroitin sulfate proteoglycan 4 (CSPG4) (human) (UniProt Q6UVK1); assay: flow cytometry (FACS), whole cell population of MDA-MB-231 cells; control antibody
[19] = molecular target: chondroitin sulfate proteoglycan 4 (CSPG4) (human) (UniProt Q6UVK1); assay: flow cytometry (FACS), whole cell population of T-47D cells; control antibody
[20] = molecular target: chondroitin sulfate proteoglycan 4 (CSPG4) (human) (UniProt Q6UVK1); assay: flow cytometry (FACS), whole cell population of SK-BR-3 cells; control antibody
[21] = molecular target: chondroitin sulfate proteoglycan 4 (CSPG4) (human) (UniProt Q6UVK1); assay: flow cytometry (FACS), CD44+/CD24-/lo putative CSC subpopulation of SUM-149 cells; control antibody
[22] = molecular target: chondroitin sulfate proteoglycan 4 (CSPG4) (human) (UniProt Q6UVK1); assay: flow cytometry (FACS), whole cell population of MDA-MB-435 cells; control antibody
[23] = molecular target: chondroitin sulfate proteoglycan 4 (CSPG4) (human) (UniProt Q6UVK1); assay: flow cytometry (FACS), whole cell population of SUM-149 cells; control antibody
[24] = molecular target: chondroitin sulfate proteoglycan 4 (CSPG4) (human) (UniProt Q6UVK1); assay: flow cytometry (FACS), whole cell population of MCF-7 cells; control antibody
[25] = molecular target: chondroitin sulfate proteoglycan 4 (CSPG4) (human) (UniProt Q6UVK1); assay: flow cytometry (FACS), whole cell population of HS578T cells; control antibody

UniProt Q6UVK1, sequence (Q6UVK1 30-2322): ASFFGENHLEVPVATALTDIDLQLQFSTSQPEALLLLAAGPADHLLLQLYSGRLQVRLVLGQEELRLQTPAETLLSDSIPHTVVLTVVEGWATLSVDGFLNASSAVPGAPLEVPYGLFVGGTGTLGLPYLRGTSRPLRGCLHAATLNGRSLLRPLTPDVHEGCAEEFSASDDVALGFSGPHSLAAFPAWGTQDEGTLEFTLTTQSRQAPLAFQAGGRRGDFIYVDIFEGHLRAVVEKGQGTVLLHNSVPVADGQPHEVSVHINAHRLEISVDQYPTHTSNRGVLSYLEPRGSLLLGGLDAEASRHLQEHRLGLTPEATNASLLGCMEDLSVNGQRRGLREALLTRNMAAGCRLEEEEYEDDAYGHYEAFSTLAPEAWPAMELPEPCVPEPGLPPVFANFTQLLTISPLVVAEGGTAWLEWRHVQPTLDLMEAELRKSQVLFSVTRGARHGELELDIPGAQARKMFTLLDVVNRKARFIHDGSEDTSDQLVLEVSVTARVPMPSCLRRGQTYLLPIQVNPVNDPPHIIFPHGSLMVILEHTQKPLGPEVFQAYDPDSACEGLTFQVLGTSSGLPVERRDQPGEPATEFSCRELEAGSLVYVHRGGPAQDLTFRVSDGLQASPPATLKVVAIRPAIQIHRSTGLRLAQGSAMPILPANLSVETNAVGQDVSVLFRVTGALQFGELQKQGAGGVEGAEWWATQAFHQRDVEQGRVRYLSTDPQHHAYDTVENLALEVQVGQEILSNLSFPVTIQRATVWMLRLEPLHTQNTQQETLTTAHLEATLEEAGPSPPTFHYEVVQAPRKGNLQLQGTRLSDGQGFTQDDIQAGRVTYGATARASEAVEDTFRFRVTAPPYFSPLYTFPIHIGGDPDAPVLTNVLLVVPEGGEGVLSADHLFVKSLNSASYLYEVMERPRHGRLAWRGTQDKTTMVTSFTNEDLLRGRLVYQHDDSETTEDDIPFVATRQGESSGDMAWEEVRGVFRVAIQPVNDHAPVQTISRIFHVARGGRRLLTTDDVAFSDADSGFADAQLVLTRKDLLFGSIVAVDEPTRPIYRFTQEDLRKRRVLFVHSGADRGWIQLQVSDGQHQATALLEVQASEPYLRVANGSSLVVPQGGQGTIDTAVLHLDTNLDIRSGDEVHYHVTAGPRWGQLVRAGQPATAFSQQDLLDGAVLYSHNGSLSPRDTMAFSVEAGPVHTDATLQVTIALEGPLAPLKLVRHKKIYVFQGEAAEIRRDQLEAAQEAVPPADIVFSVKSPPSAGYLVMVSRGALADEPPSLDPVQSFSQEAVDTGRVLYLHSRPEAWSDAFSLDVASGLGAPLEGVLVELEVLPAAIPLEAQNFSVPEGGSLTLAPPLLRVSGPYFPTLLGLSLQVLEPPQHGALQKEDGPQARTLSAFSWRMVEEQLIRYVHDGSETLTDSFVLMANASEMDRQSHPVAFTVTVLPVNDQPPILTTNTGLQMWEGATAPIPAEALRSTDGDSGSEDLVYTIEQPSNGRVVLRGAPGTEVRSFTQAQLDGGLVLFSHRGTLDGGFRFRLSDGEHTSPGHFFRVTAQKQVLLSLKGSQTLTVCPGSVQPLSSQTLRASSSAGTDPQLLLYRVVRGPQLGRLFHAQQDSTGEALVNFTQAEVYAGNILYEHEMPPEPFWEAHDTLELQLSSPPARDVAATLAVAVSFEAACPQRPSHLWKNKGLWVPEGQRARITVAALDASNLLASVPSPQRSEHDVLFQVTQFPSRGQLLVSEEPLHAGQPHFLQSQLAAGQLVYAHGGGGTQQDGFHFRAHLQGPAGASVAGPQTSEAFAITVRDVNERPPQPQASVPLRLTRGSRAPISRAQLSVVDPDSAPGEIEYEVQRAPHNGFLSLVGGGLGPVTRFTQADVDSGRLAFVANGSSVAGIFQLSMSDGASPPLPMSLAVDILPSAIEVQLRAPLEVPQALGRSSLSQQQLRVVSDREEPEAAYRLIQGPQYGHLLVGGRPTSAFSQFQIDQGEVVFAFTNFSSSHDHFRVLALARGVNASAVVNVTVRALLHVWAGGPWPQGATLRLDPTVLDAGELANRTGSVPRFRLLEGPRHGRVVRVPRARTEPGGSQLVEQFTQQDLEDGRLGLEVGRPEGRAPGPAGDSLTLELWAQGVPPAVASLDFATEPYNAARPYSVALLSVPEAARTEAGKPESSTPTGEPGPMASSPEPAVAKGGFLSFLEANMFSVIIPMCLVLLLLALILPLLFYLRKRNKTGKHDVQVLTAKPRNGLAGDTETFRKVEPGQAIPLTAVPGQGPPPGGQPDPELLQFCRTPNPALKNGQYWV

CSPG4-specific mAb TP61.5 (antibody)
% of stained cells [1]: 75.6% | MFI [1]: 33.6 | % of stained cells [2]: 0.1% | MFI [2]: 2.4 | % of stained cells [3]: 82.4% | MFI [3]: 61.1 | % of stained cells [4]: 92.3% | MFI [4]: 109 | % of stained cells [5]: 51.1% | MFI [5]: 19.6 | % of stained cells [6]: 0% | MFI [6]: 2.3 | % of stained cells [7]: 51.2% | MFI [7]: 10.5 | % of stained cells [8]: 68.3% | MFI [8]: 86.3 | % of stained cells [9]: 98% | MFI [9]: 93 | % of stained cells [10]: 9.9% | MFI [10]: 3.2 | % of stained cells [11]: 72.4% | MFI [11]: 34.4 | % of stained cells [12]: 3.5% | MFI [12]: 7.8

CSPG4-specific mAb TP41.2 (antibody)
% of stained cells [1]: 12% | MFI [1]: 6.1 | % of stained cells [2]: 0.1% | MFI [2]: 2.1 | % of stained cells [3]: 86.8% | MFI [3]: 63.3 | % of stained cells [4]: 52.6% | MFI [4]: 34.2 | % of stained cells [5]: 0.9% | MFI [5]: 2.8 | % of stained cells [6]: 0.3% | MFI [6]: 2.7 | % of stained cells [7]: 1.4% | MFI [7]: 2.7 | % of stained cells [8]: 88.4% | MFI [8]: 142 | % of stained cells [9]: 91.9% | MFI [9]: 40.4 | % of stained cells [10]: 2.5% | MFI [10]: 2.5 | % of stained cells [11]: 17.6% | MFI [11]: 14.5 | % of stained cells [12]: 13.8% | MFI [12]: 11.9

CSPG4-specific mAb 225.28 (antibody)
inhibition of adhesion of cells to fibronectin [13]: 45% | inhibition of cell growth in a 3D matrix setting (TNBC cells) [13]: 70% | inhibition of motility towards fibronectin in a Boyden chamber assay [13]: 56% | % of stained cells [1]: 85.7% | MFI [1]: 53.8 | % of stained cells [2]: 1.5% | MFI [2]: 4.6 | % of stained cells [3]: 96.1% | MFI [3]: 714 | % of stained cells [4]: 66.7% | MFI [4]: 379 | % of stained cells [5]: 93.4% | MFI [5]: 193 | % of stained cells [6]: 13% | MFI [6]: 3.8 | % of stained cells [7]: 95.7% | MFI [7]: 179 | % of stained cells [8]: 83.8% | MFI [8]: 53.8 | % of stained cells [9]: 99.7% | MFI [9]: 694 | % of stained cells [10]: 11.4% | MFI [10]: 9.8 | % of stained cells [11]: 71.7% | MFI [11]: 196 | % of stained cells [12]: 8.5% | MFI [12]: 12

CSPG4-specific mAb 763.74 (antibody)
% of stained cells [1]: 16.6% | MFI [1]: 6.9 | % of stained cells [2]: 0% | MFI [2]: 2 | % of stained cells [3]: 93.5% | MFI [3]: 79.2 | % of stained cells [4]: 61.4% | MFI [4]: 39.2 | % of stained cells [5]: 1.3% | MFI [5]: 2.8 | % of stained cells [6]: 0.5% | MFI [6]: 3.4 | % of stained cells [7]: 3% | MFI [7]: 3.1 | % of stained cells [8]: 91.2% | MFI [8]: 154 | % of stained cells [9]: 96.4% | MFI [9]: 50.5 | % of stained cells [10]: 2.6% | MFI [10]: 2.4 | % of stained cells [11]: 33.9% | MFI [11]: 17.6 | % of stained cells [12]: 17.4% | MFI [12]: 13.8

Isotype control (antibody)
% of stained cells [14]: 0.5% | MFI [14]: 3 | % of stained cells [15]: 0.6% | MFI [15]: 1.8 | % of stained cells [16]: 0.4% | MFI [16]: 3.7 | % of stained cells [17]: 0.5% | MFI [17]: 10 | % of stained cells [18]: 0.3% | MFI [18]: 9.8 | % of stained cells [19]: 6.2% | MFI [19]: 10.4 | MFI [20]: 4.3 | % of stained cells [21]: 0.5% | % of stained cells [22]: 0.7% | MFI [22]: 9.1 | % of stained cells [23]: 2% | MFI [23]: 2.7 | % of stained cells [24]: 0.7% | MFI [24]: 6.2 | % of stained cells [25]: 0.4% | MFI [25]: 13
